Test results as given in patent publication US20240366761A1 (LEGEND BIOTECH IRELAND, published 2024).

B1: TGB23-2 fusion protein (TGFβ receptor and IL-23 receptor fusion protein) (receptor)
chain 1: TIPPHVQKSVNNDMIVTDNNGAVKFPQLCKFCDVRFSTCDNQKSCMSNCSITSICEKPQEVCVAVWRKNDENITLETVCHDPKLPYHDFILEDAASPKCIMKEKKKPGETFFMCSCSSDECNDNIIFSEEYNTSNPDLLLVIFQVTGISLLPPLGVAISVIIIFYCYRVNRQNRSFRTGIKRRILLLIPKWLYEDIPNMKNSNVVKMLQENSELMNNNSSEQVLYVDPMITEIKEIFIPEHKPTDYKKENTGPLETRDYPQNSLFDNTTVVYIPDLNTGYKPQISNFLPEGSHLSNNNEITSLTLKPPVDSLDSGNNPRLQKHPNFAFSVSSVNSLSNTIFLGELSLILNQGECSSPDIQNSVEEETTMLLENDSPSETIPEQTLLPDEFVSCLGIVNEELPSINTYFPQNILESHFNRISLLEK
chain 2: LQCFCHLCTKDNFTCVTDGLCFVSVTETTDKVIHNSMCIAEIDLIPRDRPFVCAPSSKTGSVTTTYCCNQDHCNKIELPTTVKSSPGLGPVELAAVIAGPVCFVCISLMLMVYICHNRTVNRAARHLCPPLPTPCASSAIEFPGGKETWQWINPVDFQEEASLQEALVVEMSWDKGERTEPLEKTELPEGAPELALDTELSLEDGDRCKAKM
B2: TGB23-3 fusion protein (TGFβ receptor and IL-23 receptor fusion protein) (receptor)
chain 1: B1 chain 2
chain 2: B1 chain 1
B3: TGB23-4 fusion protein (TGFβ receptor and IL-23 receptor fusion protein) (receptor)
chain 1: LQCFCHLCTKDNFTCVTDGLCFVSVTETTDKVIHNSMCIAEIDLIPRDRPFVCAPSSKTGSVTTTYCCNQDHCNKIELPTTVKSSPGLGPVELVPQVTSKAFQHDTWNSGLTVASISTGHLTSDNRGDIGLLLGMIVFAVMLSILSLIGIFNRSFRTGIKRRILLLIPKWLYEDIPNMKNSNVVKMLQENSELMNNNSSEQVLYVDPMITEIKEIFIPEHKPTDYKKENTGPLETRDYPQNSLFDNTTVVYIPDLNTGYKPQISNFLPEGSHLSNNNEITSLTLKPPVDSLDSGNNPRLQKHPNFAFSVSSVNSLSNTIFLGELSLILNQGECSSPDIQNSVEEETTMLLENDSPSETIPEQTLLPDEFVSCLGIVNEELPSINTYFPQNILESHFNRISLLEK
chain 2: TIPPHVQKSVNNDMIVTDNNGAVKFPQLCKFCDVRFSTCDNQKSCMSNCSITSICEKPQEVCVAVWRKNDENITLETVCHDPKLPYHDFILEDAASPKCIMKEKKKPGETFFMCSCSSDECNDNIIFSEEYNTSNPDLLLVIFQVSDWLIFFASLGSFLSILLVGVLGYLGLNRAARHLCPPLPTPCASSAIEFPGGKETWQWINPVDFQEEASLQEALVVEMSWDKGERTEPLEKTELPEGAPELALDTELSLEDGDRCKAKM
B4: TGB23-5 fusion protein (TGFβ receptor and IL-23 receptor fusion protein) (receptor)
chain 1: TIPPHVQKSVNNDMIVTDNNGAVKFPQLCKFCDVRFSTCDNQKSCMSNCSITSICEKPQEVCVAVWRKNDENITLETVCHDPKLPYHDFILEDAASPKCIMKEKKKPGETFFMCSCSSDECNDNIIFSEEYNTSNPDLLLVIFQVPQVTSKAFQHDTWNSGLTVASISTGHLTSDNRGDIGLLLGMIVFAVMLSILSLIGIFNRSFRTGIKRRILLLIPKWLYEDIPNMKNSNVVKMLQENSELMNNNSSEQVLYVDPMITEIKEIFIPEHKPTDYKKENTGPLETRDYPQNSLFDNTTVVYIPDLNTGYKPQISNFLPEGSHLSNNNEITSLTLKPPVDSLDSGNNPRLQKHPNFAFSVSSVNSLSNTIFLGELSLILNQGECSSPDIQNSVEEETTMLLENDSPSETIPEQTLLPDEFVSCLGIVNEELPSINTYFPQNILESHFNRISLLEK
chain 2: LQCFCHLCTKDNFTCVTDGLCFVSVTETTDKVIHNSMCIAEIDLIPRDRPFVCAPSSKTGSVTTTYCCNQDHCNKIELPTTVKSSPGLGPVELVSDWLIFFASLGSFLSILLVGVLGYLGLNRAARHLCPPLPTPCASSAIEFPGGKETWQWINPVDFQEEASLQEALVVEMSWDKGERTEPLEKTELPEGAPELALDTELSLEDGDRCKAKM
B5: TGB23-6 fusion protein (TGFβ receptor and IL-23 receptor fusion protein) (receptor)
chain 1: B4 chain 2
chain 2: B4 chain 1

Target: recombinant human TGFβ1 (human, UniProt P01137 279-390)
Assay: cell-based or functional assay

recombinant human TGFβ1, sequence (P01137 279-390 limits assumed): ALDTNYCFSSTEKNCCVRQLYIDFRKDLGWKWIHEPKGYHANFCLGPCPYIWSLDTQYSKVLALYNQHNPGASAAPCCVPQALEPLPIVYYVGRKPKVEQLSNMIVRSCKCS

Row | Binder | T cell number from day 0 to day 5 after transduction, culture with 20 ng/mL TGFβ1 [fold]
1 | B1 | > 4
2 | B2 | > 4
3 | B3 | > 4
4 | B4 | > 4
5 | B5 | > 4
